Test results: patent publication US20220288067A1 (University of Pennsylvania, published 2022)

T1: Human Recombinant GST-MED1 protein (aa1391-1490), Q15648
T1 chain: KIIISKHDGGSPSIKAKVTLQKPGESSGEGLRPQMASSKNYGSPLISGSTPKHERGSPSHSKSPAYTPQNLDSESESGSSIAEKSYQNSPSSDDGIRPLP

T2: mutant MED1-peptide SPAYAPQNLD
T2 chain: SPAYAPQNLD

T3: wild type MED1-peptide SPAYTPQNLD
T3 chain: SPAYTPQNLD


Assays:
[1] = target: T1, Human Recombinant GST-MED1 protein …
[2] = target: T2, mutant MED1-peptide SPAYAPQNLD
[3] = target: T3, wild type MED1-peptide SPAYTPQNLD
[4] = target: T4, MED1 (endogenous, phosphorylated upon DHT stimulation) (Homo sapiens, UniProt Q15648 1-1581, phosphothreonine at T1457 and T1032 (DHT-induced)); experiment: reciprocal co-immunoprecipitation from LNCaP and VCaP nuclear lysates with MED1 and CDK7 antibodies (FIGS. 5c, 5d)
T4 construct: Endogenous protein immunoprecipitated with an anti-MED1 antibody (Bethyl A300-793A) from nuclear extracts; also called p-MED1; TRAP220
T4 sequence (Q15648 whole entry): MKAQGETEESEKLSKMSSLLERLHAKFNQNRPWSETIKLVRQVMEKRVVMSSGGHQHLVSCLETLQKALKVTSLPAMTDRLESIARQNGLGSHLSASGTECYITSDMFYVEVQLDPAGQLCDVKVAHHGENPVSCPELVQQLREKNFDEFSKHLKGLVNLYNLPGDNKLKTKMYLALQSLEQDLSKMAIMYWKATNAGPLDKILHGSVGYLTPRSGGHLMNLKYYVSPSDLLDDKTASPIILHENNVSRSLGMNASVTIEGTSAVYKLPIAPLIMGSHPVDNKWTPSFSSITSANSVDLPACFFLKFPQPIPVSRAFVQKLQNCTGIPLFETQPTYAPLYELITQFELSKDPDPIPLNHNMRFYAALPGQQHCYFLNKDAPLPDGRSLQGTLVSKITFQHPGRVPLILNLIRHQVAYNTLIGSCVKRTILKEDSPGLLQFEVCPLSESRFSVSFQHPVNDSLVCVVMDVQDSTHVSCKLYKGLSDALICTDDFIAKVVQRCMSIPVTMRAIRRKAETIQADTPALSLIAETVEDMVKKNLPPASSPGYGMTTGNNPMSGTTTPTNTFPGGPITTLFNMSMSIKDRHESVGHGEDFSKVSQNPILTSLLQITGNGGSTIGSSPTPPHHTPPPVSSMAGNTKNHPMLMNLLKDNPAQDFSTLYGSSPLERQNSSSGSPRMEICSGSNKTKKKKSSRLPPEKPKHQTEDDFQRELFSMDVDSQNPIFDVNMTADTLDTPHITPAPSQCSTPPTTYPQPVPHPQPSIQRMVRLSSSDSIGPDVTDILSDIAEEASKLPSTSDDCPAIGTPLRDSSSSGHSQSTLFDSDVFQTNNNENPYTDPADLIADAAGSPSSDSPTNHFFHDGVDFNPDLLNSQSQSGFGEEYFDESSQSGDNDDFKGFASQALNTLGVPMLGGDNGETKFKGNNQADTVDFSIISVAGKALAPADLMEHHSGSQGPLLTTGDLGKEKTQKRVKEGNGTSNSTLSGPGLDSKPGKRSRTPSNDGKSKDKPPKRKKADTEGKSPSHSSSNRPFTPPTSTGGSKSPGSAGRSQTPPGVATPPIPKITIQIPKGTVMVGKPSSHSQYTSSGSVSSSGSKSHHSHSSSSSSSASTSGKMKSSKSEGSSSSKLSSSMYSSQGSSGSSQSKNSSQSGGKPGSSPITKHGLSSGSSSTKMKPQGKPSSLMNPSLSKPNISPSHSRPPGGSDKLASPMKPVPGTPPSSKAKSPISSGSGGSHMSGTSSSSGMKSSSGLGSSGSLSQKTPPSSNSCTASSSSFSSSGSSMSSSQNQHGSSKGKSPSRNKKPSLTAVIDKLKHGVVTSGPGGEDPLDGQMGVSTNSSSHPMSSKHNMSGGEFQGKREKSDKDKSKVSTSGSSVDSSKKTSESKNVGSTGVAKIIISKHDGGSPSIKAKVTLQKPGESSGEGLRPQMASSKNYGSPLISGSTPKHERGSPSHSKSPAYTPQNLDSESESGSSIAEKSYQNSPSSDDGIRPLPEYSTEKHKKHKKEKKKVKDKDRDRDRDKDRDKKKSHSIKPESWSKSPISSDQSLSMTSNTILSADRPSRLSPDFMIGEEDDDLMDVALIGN

binding result [4]	Binder	in vitro kinase assay, immunoblot of the reaction mixtures [1]	luminescence based kinase assay (ADP-Glo) [2]	luminescence based kinase assay (ADP-Glo) [3]
–	CAK complex-CDK7/CyclinH/MAT1 enzyme (recombinant, BPS Bioscience) (protein) chain 1: ALDVKSRAKRYEKLDFLGEGQFATVYKARDKNTNQIVAIKKIKLGHRSEAKDGINRTALREIKLLQELSHPNIIGLLDAFGHKSNISLVFDFMETDLEVIIKDNSLVLTPSHIKAYMLMTLQGLEYLHQHWILHRDLKPNNLLLDENGVLKLADFGLAKSFGSPNRAYTHQVVTRWYRAPELLFGARMYGVGVDMWAVGCILAELLLRVPFLPGDSDLDQLTRIFETLGTPTEEQWPDMCSLPDYVTFKSFPGIPLHHIFSAAGDDLLDLIQGLFLFNPCARITATQALKMKYFSNRPGPTPGCQLPRPNCPVETLKEQSNPALAIKRKRTEALEQGGLPKKLIF chain 2: YHNSSQKRHWTFSSEEQLARLRADANRKFRCKAVANGKVLPNDPVFLEPHEEMTLCKYYEKRLLEFCSVFKPAMPRSVVGTACMYFKRFYLNNSVMEYHPRIIMLTCAFLACKVDEFNVSSPQFVGNLRESPLGQEKALEQILEYELLLIQQLNFHLIVHNPYRPFEGFLIDLKTRYPILENPEILRKTADDFLNRIALTDAYLLYTPSQIALTAILSSASRAGITMESYLSESLMLKENRTCLSQLLDIMKSMRNLVKKYEPPRSEEVAVLKQKLERCHSAELALNVITKKRKGYEDDDYVSKKSKHEEEEWTDDDLVESL chain 3: DDQGCPRCKTTKYRNPSLKLMVNVCGHTLCESCVDLLFVRGAGNCPECGTPLRKSNFRVQLFEDPTVDKEVEIRKKVLKIYNKREEDFPSLREYNDFLEEVEEIVFNLTNNVDLDNTKKKMEIYQKENKDVIQKNKLKLTREQEELEEALEVERQENEQRRLFIQKEEQLQQILKRKNKQAFLDELESSDLPVALLLAQHKDRSTQLEMQLEKPKPVKPVTFSTGIKMGQHISLAPIHKLEEALYEYQPLQIETYGPHVPELEMLGRLGYLNHVRAASPQDLAGGYTSSLACHRALQDAFSGLFWQPS	we observed Threonine phosphorylation, specifically at T1457, which was completely inhibited by THZ1	CDK7 exhibited no activity towards the T1457A mutant peptide	CDK7-mediated phosphorylation of the T1457 wildtype peptide was inhibited by THZ1 treatment in a dose-dependent manner
binds	CDK7 (endogenous) (enzyme, human, UniProt P50613 2-346, looked up, Detected or immunoprecipitated with anti-CDK7 (Cell Signaling 2916s); also called cyclin-dependent-kinase 7) ALDVKSRAKRYEKLDFLGEGQFATVYKARDKNTNQIVAIKKIKLGHRSEAKDGINRTALREIKLLQELSHPNIIGLLDAFGHKSNISLVFDFMETDLEVIIKDNSLVLTPSHIKAYMLMTLQGLEYLHQHWILHRDLKPNNLLLDENGVLKLADFGLAKSFGSPNRAYTHQVVTRWYRAPELLFGARMYGVGVDMWAVGCILAELLLRVPFLPGDSDLDQLTRIFETLGTPTEEQWPDMCSLPDYVTFKSFPGIPLHHIFSAAGDDLLDLIQGLFLFNPCARITATQALKMKYFSNRPGPTPGCQLPRPNCPVETLKEQSNPALAIKRKRTEALEQGGLPKKLIF	–	–	–
